B1: EIF2AK2 (protein, UniProt P19525 2-551, looked up)
Interferon-induced, …: AGDLSAGFFMEELNTYRQKQGVVLKYQELPNSGPPHDRRFTFQVIIDGREFPEGEGRSKKEAKNAAAKLAVEILNKEKKAVSPLLLTTTNSSEGLSMGNYIGLINRIAQKKRLTVNYEQCASGVHGPEGFHYKCKMGQKEYSIGTGSTKQEAKQLAAKLAYLQILSEETSVKSDYLSSGSFATTCESQSNSLVTSTLASESSSEGDFSADTSEINSNSDSLNSSSLLMNGLRNNQRKAKRSLAPRFDLPDMKETKYTVDKRFGMDFKEIELIGSGGFGQVFKAKHRIDGKTYVIKRVKYNNEKAEREVKALAKLDHVNIVHYNGCWDGFDYDPETSDDSLESSDYDPENSKNSSRSKTKCLFIQMEFCDKGTLEQWIEKRRGEKLDKVLALELFEQITKGVDYIHSKKLIHRDLKPSNIFLVDTKQVKIGDFGLVTSLKNDGKRTRSKGTLRYMSPEQISSQDYGKEVDLYALGLILAELLHVCDTAFETSKFFTDLRDGIISDIFDKKEKTLLQKLLSKKPEDRPNTSEILRTLTVWKKSPEKNERHTC
B2: GNB2 (protein, UniProt P62879 2-340, looked up)
Guanine nucleotide-binding …: SELEQLRQEAEQLRNQIRDARKACGDSTLTQITAGLDPVGRIQMRTRRTLRGHLAKIYAMHWGTDSRLLVSASQDGKLIIWDSYTTNKVHAIPLRSSWVMTCAYAPSGNFVACGGLDNICSIYSLKTREGNVRVSRELPGHTGYLSCCRFLDDNQIITSSGDTTCALWDIETGQQTVGFAGHSGDVMSLSLAPDGRTFVSGACDASIKLWDVRDSMCRQTFIGHESDINAVAFFPNGYAFTTGSDDATCRLFDLRADQELLMYSHDNIICGITSVAFSRSGRLLLAGYDDFNCNIWDAMKGDRAGVLAGHDNRVSCLGVTDDGMAVATGSWDSFLKIWN
B3: CSNK1A1 (protein, UniProt P48729 2-337, looked up)
Casein kinase I isoform alpha: ASSSGSKAEFIVGGKYKLVRKIGSGSFGDIYLAINITNGEEVAVKLESQKARHPQLLYESKLYKILQGGVGIPHIRWYGQEKDYNVLVMDLLGPSLEDLFNFCSRRFTMKTVLMLADQMISRIEYVHTKNFIHRDIKPDNFLMGIGRHCNKLFLIDFGLAKKYRDNRTRQHIPYREDKNLTGTARYASINAHLGIEQSRRDDMESLGYVLMYFNRTSLPWQGLKAATKKQKYEKISEKKMSTPVEVLCKGFPAEFAMYLNYCRGLRFEEAPDYMYLRQLFRILFRTLNHQYDYTFDWTMLKQKAAQQAASSSGQGQQAQTPTGKQTDKTKSNMKGF
B4: MARS (protein, UniProt P56192 1-900, looked up)
Methionine--tRNA ligase, …: MRLFVSDGVPGCLPVLAAAGRARGRAEVLISTVGPEDCVVPFLTRPKVPVLQLDSGNYLFSTSAICRYFFLLSGWEQDDLTNQWLEWEATELQPALSAALYYLVVQGKKGEDVLGSVRRALTHIDHSLSRQNCPFLAGETESLADIVLWGALYPLLQDPAYLPEELSALHSWFQTLSTQEPCQRAAETVLKQQGVLALRPYLQKQPQPSPAEGRAVTNEPEEEELATLSEEEIAMAVTAWEKGLESLPPLRPQQNPVLPVAGERNVLITSALPYVNNVPHLGNIIGCVLSADVFARYSRLRQWNTLYLCGTDEYGTATETKALEEGLTPQEICDKYHIIHADIYRWFNISFDIFGRTTTPQQTKITQDIFQQLLKRGFVLQDTVEQLRCEHCARFLADRFVEGVCPFCGYEEARGDQCDKCGKLINAVELKKPQCKVCRSCPVVQSSQHLFLDLPKLEKRLEEWLGRTLPGSDWTPNAQFITRSWLRDGLKPRCITRDLKWGTPVPLEGFEDKVFYVWFDATIGYLSITANYTDQWERWWKNPEQVDLYQFMAKDNVPFHSLVFPCSALGAEDNYTLVSHLIATEYLNYEDGKFSKSRGVGVFGDMAQDTGIPADIWRFYLLYIRPEGQDSAFSWTDLLLKNNSELLNNLGNFINRAGMFVSKFFGGYVPEMVLTPDDQRLLAHVTLELQHYHQLLEKVRIRDALRSILTISRHGNQYIQVNEPWKRIKGSEADRQRAGTVTGLAVNIAALLSVMLQPYMPTVSATIQAQLQLPPPACSILLTNFLCTLPAGHQIGTVSPLFQKLENDQIESLRQRFGGGQAKTSPKPAVVETVTTAKPQQIQALMDEVTKQGNIVRELKAQKADKNEVAAEVAKLLDLKKQLAVAEGKPPEAPKGKKKK
B5: GEMIN4 (protein, UniProt P57678 1-1058, looked up)
Gem-associated protein 4: MDLGPLNICEEMTILHGGFLLAEQLFHPKALAELTKSDWERVGRPIVEALREISSAAAHSQPFAWKKKALIIIWAKVLQPHPVTPSDTETRWQEDLFFSVGNMIPTINHTILFELLKSLEASGLFIQLLMALPTTICHAELERFLEHVTVDTSAEDVAFFLDVWWEVMKHKGHPQDPLLSQFSAMAHKYLPALDEFPHPPKRLRSDPDACPTMPLLAMLLRGLTQIQSRILGPGRKCCALANLADMLTVFALTEDDPQEVSATVYLDKLATVISVWNSDTQNPYHQQALAEKVKEAERDVSLTSLAKLPSETIFVGCEFLHHLLREWGEELQAVLRSSQGTSYDSYRLCDSLTSFSQNATLYLNRTSLSKEDRQVVSELAECVRDFLRKTSTVLKNRALEDITASIAMAVIQQKMDRHMEVCYIFASEKKWAFSDEWVACLGSNRALFRQPDLVLRLLETVIDVSTADRAIPESQIRQVIHLILECYADLSLPGKNKVLAGILRSWGRKGLSEKLLAYVEGFQEDLNTTFNQLTQSASEQGLAKAVASVARLVIVHPEVTVKKMCSLAVVNLGTHKFLAQILTAFPALRFVEEQGPNSSATFMVSCLKETVWMKFSTPKEEKQFLELLNCLMSPVKPQGIPVAALLEPDEVLKEFVLPFLRLDVEEVDLSLRIFIQTLEANACREEYWLQTCSPFPLLFSLCQLLDRFSKYWQLPKEKRCLSLDRKDLAIHILELLCEIVSANAETFSPDVWIKSLSWLHRKLEQLDWTVGLRLKSFFEGHFKCEVPATLFEICKLSEDEWTSQAHPGYGAGTGLLAWMECCCVSSGISERMLSLLVVDVGNPEEVRLFSKGFLVALVQVMPWCSPQEWQRLHQLTRRLLEKQLLHVPYSLEYIQFVPLLNLKPFAQELQLSVLFLRTFQFLCSHSCRDWLPLEGWNHVVKLLCGSLTRLLDSVRAIQAAGPWVQGPEQDLTQEALFVYTQVFCHALHIMAMLHPEVCEPLYVLALETLTCYETLSKTNPSVSSLLQRAHEQRFLKSIAEGIGPEERRQTLLQKMSSF
B6: TRIP13 (protein, UniProt Q15645 1-432, looked up)
Pachytene checkpoint protein …: MDEAVGDLKQALPCVAESPTVHVEVHQRGSSTAKKEDINLSVRKLLNRHNIVFGDYTWTEFDEPFLTRNVQSVSIIDTELKVKDSQPIDLSACTVALHIFQLNEDGPSSENLEEETENIIAANHWVLPAAEFHGLWDSLVYDVEVKSHLLDYVMTTLLFSDKNVNSNLITWNRVVLLHGPPGTGKTSLCKALAQKLTIRLSSRYRYGQLIEINSHSLFSKWFSESGKLVTKMFQKIQDLIDDKDALVFVLIDEVESLTAARNACRAGTEPSDAIRVVNAVLTQIDQIKRHSNVVILTTSNITEKIDVAFVDRADIKQYIGPPSAAAIFKIYLSCLEELMKCQIIYPRQQLLTLRELEMIGFIENNVSKLSLLLNDISRKSEGLSGRVLRKLPFLAHALYVQAPTVTIEGFLQALSLAVDKQFEERKKLAAYI
B7: TMOD3 (protein, UniProt Q9NYL9 1-352, looked up)
Tropomodulin-3: MALPFRKDLEKYKDLDEDELLGNLSETELKQLETVLDDLDPENALLPAGFRQKNQTSKSTTGPFDREHLLSYLEKEALEHKDREDYVPYTGEKKGKIFIPKQKPVQTFTEEKVSLDPELEEALTSASDTELCDLAAILGMHNLITNTKFCNIMGSSNGVDQEHFSNVVKGEKILPVFDEPPNPTNVEESLKRTKENDAHLVEVNLNNIKNIPIPTLKDFAKALETNTHVKCFSLAATRSNDPVATAFAEMLKVNKTLKSLNVESNFITGVGILALIDALRDNETLAELKIDNQRQQLGTAVELEMAKMLEENTNILKFGYQFTQQGPRTRAANAITKNNDLVRKRRVEGDHQ
B8: HNRNPA1;HNRNPA1L2 (protein, UniProt P09651 1-372, looked up)
Heterogeneous nuclear …: MSKSESPKEPEQLRKLFIGGLSFETTDESLRSHFEQWGTLTDCVVMRDPNTKRSRGFGFVTYATVEEVDAAMNARPHKVDGRVVEPKRAVSREDSQRPGAHLTVKKIFVGGIKEDTEEHHLRDYFEQYGKIEVIEIMTDRGSGKKRGFAFVTFDDHDSVDKIVIQKYHTVNGHNCEVRKALSKQEMASASSSQRGRSGSGNFGGGRGGGFGGNDNFGRGGNFSGRGGFGGSRGGGGYGGSGDGYNGFGNDGGYGGGGPGYSGGSRGYGSGGQGYGNQGSGYGGSGSYDSYNNGGGGGFGGGSGSNFGGGGSYNDFGNYNNQSSNFGPMKGGNFGGRSSGPYGGGGQYFAKPRNQGGYGGSSSSSSYGSGRRF
B9: RBM14 (protein, UniProt Q96PK6 1-669, looked up)
RNA-binding protein 14: MKIFVGNVDGADTTPEELAALFAPYGTVMSCAVMKQFAFVHMRENAGALRAIEALHGHELRPGRALVVEMSRPRPLNTWKIFVGNVSAACTSQELRSLFERRGRVIECDVVKDYAFVHMEKEADAKAAIAQLNGKEVKGKRINVELSTKGQKKGPGLAVQSGDKTKKPGAGDTAFPGTGGFSATFDYQQAFGNSTGGFDGQARQPTPPFFGRDRSPLRRSPPRASYVAPLTAQPATYRAQPSVSLGAAYRAQPSASLGVGYRTQPMTAQAASYRAQPSVSLGAPYRGQLASPSSQSAAASSLGPYGGAQPSASALSSYGGQAAAASSLNSYGAQGSSLASYGNQPSSYGAQAASSYGVRAAASSYNTQGAASSLGSYGAQAASYGAQSAASSLAYGAQAASYNAQPSASYNAQSAPYAAQQAASYSSQPAAYVAQPATAAAYASQPAAYAAQATTPMAGSYGAQPVVQTQLNSYGAQASMGLSGSYGAQSAAAATGSYGAAAAYGAQPSATLAAPYRTQSSASLAASYAAQQHPQAAASYRGQPGNAYDGAGQPSAAYLSMSQGAVANANSTPPPYERTRLSPPRASYDDPYKKAVAMSKRYGSDRRLAELSDYRRLSESQLSFRRSPTKSSLDYRRLPDAHSDYARYSGSYNDYLRAAQMHSGYQRRM

Tests used:
[1] = system: GFP-14-3-3β and its binding proteins; test: GFP-14-3-3β co-IP with LC-MS/MS label-free quantification, untreated versus PP1c-treated; design: species or system human; settings: pairwise comparison PP1 vs untreated
GFP-14-3-3β = GFP-14-3-3β co-IP with LC-MS/MS, untreated GFP-14-3-3β versus GFP control (14-3-3 interactome); type: binding, human; settings: pairwise comparison untreated vs GFP
[2] = log2 difference, label-free quantification, 3 replicates each

Molecule | Difference (log2), PP1 vs untreated [1] [log2] | Difference (log2), untreated vs GFP (GFP-14-3-3β) [log2] | Difference (log2), PP1 vs untreated [1, 2] | Difference (log2), untreated vs GFP (GFP-14-3-3β; [2])
B1 | -0.09631 | 2.168 |  | 
B2 | -0.1195 | -1.0406 |  | 
B3 | -0.08165 | 0.6201 |  | 
B4 | -0.131 | 0.1917 |  | 
B5 |  |  | 1.751 | 0.9703
B6 | -0.09713 | 0.9602 |  | 
B7 | -0.1127 | 0.4757 |  | 
B8 | -0.1001 | 0.6063 |  | 
B9 | -0.1292 | 0.5797 |  | 

Source: article PMC7367873, “Dissecting the sequence determinants for dephosphorylation by the catalytic subunits of phosphatases PP1 and PP2A” (Nature Communications, 2020)
